A short description of this series: soluble fraction after stress (log2 fold change); higher = more stays soluble; pooled small domains, quantitative proteomics. The conditions noted are these: stress: 50 degC. Summed up:
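Quantitative proteomics served as the high-throughput read-out for pooled custom libraries of small protein domains. Each was stressed at 50°C. Aggregation propensity is expressed as the base-two log fold change in soluble protein after stress. A higher value means a larger share of the protein remains in solution.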
As for “HMDPKWSHVRRLLDDENPIVRKALTEELIRSPEEGLAFLEQVIREPDHLLAKHAHNLLSELGWV”, the “soluble fraction (log2)” value was 0.0264.

In the case of “HMDPLGHVIKKKRLQLGMTLRDLAAKAGVHHATIDRIETDQFKVVDPSTLVKIAEALHLDQLYLLSLN”, the “soluble fraction (log2)” value is -0.0139. For “HMDPLPDEVQEVIDMVDGFKAMDELSEADKADVKAAYDAYNALSAEHKAMVPEHIVTFLNRAYDKLFD”, the “soluble fraction (log2)” value came to 0.0291. For “HMDPPVDLTPREQQVLSRIALGMSDKAIAAELGVSHQTVRNHVARIYAKIKVHSRSQAIVWAREKGIP”, the “soluble fraction (log2)” value was -0.185. As to “HMDPSKMKIDELEIATRTATALADGGIKSVAGLIRKSASALKELDGVGDKAIAEITEALEKLGLELKG”, the “soluble fraction (log2)” value turned out to be 0.0501. With “HMDPSWVPVFNNLRDAILSHQLLPGTRLAEDELSNIYGLGRTVIRSALGALTHEGLLTHIPNRGVHVAKP”, the “soluble fraction (log2)” value was -0.819. In the case of “HMDPTIAAIRKKLKNWTIVEVHMTREELEQAVIDGKVDVFLSSAGFYRRLVRFGARDLATAMSPAYPD” it was -0.542; in that of “HMDPTYYFNLYPNPSKDEVSLFTNFTGKINIEILDLAGKSILSDNPISTISLVSLKEGLYLVKVKS”, -0.208; in that of “HMDPYLSGLLQKLAETDKKISFTRLRSEDLDGESREAIYEFIEKYSGRFGVRWLLNEFGLSPSVYYNYLHS”, -0.741. In the case of “HMDQDLGFLINKYFELGKDYNTLVEIYEKIKEYIASIDKKMLEYTKNFTIEQLKKWLDDGTINNIILTLG” it was -0.142; in that of “HMDQEDAYMQVRQVFDTLLVSELSKRIFAWRFFEGKSFAEWPGAESQKFLYDTFNRILLIISAKIRRKNA”, -0.0448; in that of “HMDQHERQQLLIHIAGGEREALAELYQRTRSAVYGLALSYLKNAHDAQDLTRDVYVQVWDRA”, 0.344. The same measure for “HMDQQTKFKTALAALAASAETKDRKLTKADVKEFLEDMDLGEEQMKLVYAYLASKHIHVEGAE”: 0.178; for “HMDQSIDADIINLNFSKNIIKIEENVYYKNNNAKVNADKIEINIETKKLKISMNEQEDEVEIFAK”: 0.283. In the case of “HMDQTIFFGQQKAINNLSTDAGLSATELDEYLKKRYKRPLYQLTQAEGAEIIKGFQDGALSRSSILDYTK”, the “soluble fraction (log2)” value is -0.00165. The same measure for “HMDRKFFFNEQYEDYINSDLKVKFMNDSGSKKSFQGELTKVTPSDLFLESEKESVKVPFSSIIQANLI”: -0.147; for “HMDRLTISTLGNGLFRVNGAEAEATVYNLSGNVVKVVPADEVIDLSSLAKGVYIIHVDGEAFKVI”: -0.86; for “HMDRMFQPETWSKIYQWVMNDPQVPDKEDVLALIRRHFGNFEKLIKLLHYLDGGKPYAYLSEH”: -0.115.

Regarding “HMDRSLYVGDAVGFDSARGLMEIEVKNKFSVVAVSLKKKPSGNFITPLLRMEKKKGEAVTVAPGSGHR”, the “soluble fraction (log2)” value is -0.33. As to “HMDRSQRDQEQAQLIRLVQQAFDDSGQRYGAEKIRITLAEGGIRVSTKRIAAIMQELDLRSI”, the “soluble fraction (log2)” value is -1.36. The same measure for “HMDRSRAEIDLGHVETAIRTLAEGGMVQEYAIGGRSLKRYKMGELLQLKAELENEINMERRKEKMRQ”: 0.197; for “HMDRVDGWLHDGKLYLRVVDYKTGKKSFDLAELRYGLGLQMLLYLFTLKEEGQMLFGGHEIVPAGVL”: -0.391. For the sequence “HMDRVSEITLTRLRDYAADGQVRTATLTHRTNVVTGTLRDGRRFSAGVPPMYGDELTTFLLDNGVRVDSDN”, the “soluble fraction (log2)” value is -0.167. In the case of “HMDSDMGQQLKTLLTVGTFMSSKELKAIAQQLGLKKPTDLKEWVELESGTQRIEGKPTKGYWIKMNDINN” it was 0.159.

For “HMDSGINVWASAEGLTITADKDTTVYVYDIYGRTIHTSEVKAGTSDIAINTKGIVIVKANGYTKKII”, the “soluble fraction (log2)” value is -1.

Turning to “HMDSILSIVGGEESYKALLAWAENNISQQELQQLETILKSGNVPAIKRVLVTLMNRFNQAQS”, the “soluble fraction (log2)” value was -0.147. In the case of “HMDSINGEASISRELHGTRFDQAAAILFPEFSRSRLQAWIGAGALTLDGQTARAKDKVTQGQHLVLAAAVE” it was -0.0684; in that of “HMDSINIDEETAKLGPNAPQIIDGIKKWGQGLVAKGVWSDEDFDEFKVFAATSSGINALNKIRKYY”, 0.0428.

For the sequence “HMDSKYLRIFSTLIDEMEKMSPGEQLQSERELSQRFQVSPMTVRRALHKLSTEGYTSAIPGKGTFVRK”, the “soluble fraction (log2)” value is -0.307. Consider “HMDSLELADEVGRVSEALQELRPHQREVLELSLVHGRSHQQISEKTGLALGTVKSHARRGLMRVREMLGV”, for which the “soluble fraction (log2)” value was -0.445. In the case of “HMDSLIEYENERSLRRLINENLSDYERTVWWLYYAGADAAHIAEQTGRSKRSAENAITRVRRKLRALITQS” it was -1.08; in that of “HMDSNISVSEALEMVDKGSVKEIIVEGEKLYITNQDGKQYTSSKEVGVSLIELMKDSGIDPIKSDVNIIVK”, 0.214; in that of “HMDSRVRHAVLTTLLGKRIVDDLVEKGELPGTPLVLATAPGLDRDLEQLIAQRVVTALLTTV”, -0.082. “HMDSSALEPIVDQIIADNPKQVEQFQAGKTKVLGFFVGQVMKQTDGTANPKQVNELVAARLKSA”: the “soluble fraction (log2)” value worked out at 0.181. The same measure for “HMDSTDSIIHYVRAHRSLEVKNLSFAEARFKKVVELEPNFARGWLGLGEVSILKNNFENASIYLDKALE”: -0.463; for “HMDSTLTNEIYNELYRAITHQELKPGQNLTLTMLKKQFNVSHTPIREALTRLSADGLVTYHPNKGMKVT”: -0.274. In the case of “HMDSTTHALALVRTLPRDQAEAVLLRVVADLDYADVAEIMGRSPGAVRVLVHRGLRRLEQELATRRT” it was -0.465; in that of “HMDSVEYRVITGDDVNFRKGPSTDYASLGKLNKGYKVEYISETNSWSKVKYNGQTGYVYSKYVAQT”, 0.0362; in that of “HMDSVTVPDISGYSPKAAEDSINNAGLKINEQGLSGSGDGQVVERTSPSAGSKVKKGDSVTVYYSKA”, 0.00106.

Regarding “HMDTDVFLMDLRGESRDYAEEVLINNNLEVKVIILPFSKRHYPGKVVEMRPSPFTKVKKGRIITLSVAGN”, the “soluble fraction (log2)” value is -3.71.

Take “HMDTDWDVSGVTPDQYRLLFSVLGGLAGVKDVGLNPDGLRIIHTPEALPSIEKAFQANGLKLKRNVD”: the “soluble fraction (log2)” value came to 0.035.

As for “HMDTETLIDKYQLNASEAAVLRFMDKNRDSLRDLGIRDVARASYVSTATIVNMAKKIGYSGYSELVFAYGS”, the “soluble fraction (log2)” value was -1.09. Consider “HMDTFSVAIGTKTPDGSSVGEVKTISRDELLLLEDEVAEDPTKEIIFTGGTKDSAQAALDGWIDYNTNLAS”, for which the “soluble fraction (log2)” value is 0.00318. The same measure for “HMDTFYKNLSKKIKTIREKLSFSQEALAKELGISRVAISQIENGDRKISAEEIAKLSRVFNVPTDILLN”: 0.187.

For the sequence “HMDTHDVQVPQEGQGLRLDLFLTDHIEGSRSFIQTIIKDGHVILNGKKAKANSRLNEGDYVVWSIPKPE”, the “soluble fraction (log2)” value is -0.0683. The same measure for “HMDTHRLNYSDFVAEVQAQRVSKVVIDGYTIVGQRTNGETFETVRPALQDPKLVDDLLQNNVIIEGKQPE”: 0.0106; for “HMDTIVHFLSDGRRITVRIKRNARKNIILRPMAADAVSATIPPWLGRRQLSAWLSEREDLLLSVLSRAA”: -2.14; for “HMDTLESYVKRLEKLEGIADSFKGVSKAFALQAGREIRIMVESEKITDEEAVWLSKDIARRIENELEYPG”: -0.378. In the case of “HMDTNKMLIVNSISNGMKRLQELQDPQLAEIQKTFSGLDEQKATSAQLAQINNIINNRIAEIEG”, the “soluble fraction (log2)” value was 0.145.

For the sequence “HMDTNPKVIITMDGVNVRSSASTGSDILFIAEKGEEYELISESGDFYKILYEGNKEGYVASWLVETSE”, the “soluble fraction (log2)” value amounted to 0.0987.

For the origin of these results see the domain aggregation screens of Martell et al. (2025).
